Three molecules from article doi:10.1101/2021.02.03.429564 can be followed below.

Assay [1] concerns the target full-length recombinant human RAD51 protein, N-terminal 6xHis-tagged (human) (UniProt Q06609).
For assay [2] the target is unchanged. The experiment in a line: static light scattering.
For assay [3] the target is unchanged. The experiment in a line: MST.
For assay [4], the target named is T1, full-length recombinant human RAD51 protein, N-terminal 6xHis-tagged (human), Q06609.
T1 chain: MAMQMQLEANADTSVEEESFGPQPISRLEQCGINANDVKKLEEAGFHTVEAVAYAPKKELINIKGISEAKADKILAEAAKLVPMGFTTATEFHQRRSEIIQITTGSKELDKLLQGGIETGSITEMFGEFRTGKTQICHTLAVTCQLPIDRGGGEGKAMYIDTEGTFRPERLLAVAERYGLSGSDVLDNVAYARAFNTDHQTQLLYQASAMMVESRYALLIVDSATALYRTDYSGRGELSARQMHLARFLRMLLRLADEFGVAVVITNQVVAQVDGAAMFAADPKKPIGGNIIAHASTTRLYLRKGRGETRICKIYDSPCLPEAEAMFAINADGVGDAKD
The experiment in a line: static light scattering. Conditions: remark: other sources report otherwise.

For “Myristoylated BRC4 (BRC4-ss-Myr) (peptide)”, the IC50 of inhibition of homologous recombination in BxPC-3 cells in assay [1] worked out at 5 µM.

As to “BRC4 peptide (fourth BRC repeat of the BRCA2 protein)”, the EC50 in assay [2] is 4 to 5 µM; in assay [3], 60 to 80 nM.

B1: full-length recombinant human RAD51 protein, N-terminal 6xHis-tagged, Q06609 1-339 (natural protein)
chain: MAMQMQLEANADTSVEEESFGPQPISRLEQCGINANDVKKLEEAGFHTVEAVAYAPKKELINIKGISEAKADKILAEAAKLVPMGFTTATEFHQRRSEIIQITTGSKELDKLLQGGIETGSITEMFGEFRTGKTQICHTLAVTCQLPIDRGGGEGKAMYIDTEGTFRPERLLAVAERYGLSGSDVLDNVAYARAFNTDHQTQLLYQASAMMVESRYALLIVDSATALYRTDYSGRGELSARQMHLARFLRMLLRLADEFGVAVVITNQVVAQVDGAAMFAADPKKPIGGNIIAHASTTRLYLRKGRGETRICKIYDSPCLPEAEAMFAINADGVGDAKD
With B1, the stoichiometry N in assay [4] was 40 protomers.
